Laboratory results taken from paper PMC6607443, “Systematic identification of recognition motifs for the hub protein LC8” (Life Science Alliance, 2019).

Biological target: dynein light chain LC8 (UniProt P63167)
Assay: ITC; peptide (500 μM) injected into 25 μM LC8 in the cell; 25°C; 50 mM sodium phosphate, 50 mM NaCl, 1 mM sodium azide, 5 mM β-mercaptoethanol, pH 7.5; single-site model; averages of two to three experiments

Sequence of dynein light chain LC8 (P63167 whole entry): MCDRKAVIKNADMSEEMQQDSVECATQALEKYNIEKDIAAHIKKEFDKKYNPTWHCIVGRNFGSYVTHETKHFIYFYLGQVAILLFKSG

HIV Tat-specific factor 1 (HTATSF1) peptide
Kd: 10 µM | stoichiometry N (peptide per LC8 chain): 1
